{
  "source": "FireProtDB (doi:10.1021/bi000415x)",
  "parents": {"B1": {"name": "Protein P-30, P22069 (parent)", "chain": "QDWLTFQKKHITNTRDVDCDNIMSTNLFHCKDKNTFIYSRPEPVKAICKGIIASKNVLTTSEFYLSDCNVTSRPCKYKLKKSTNKFCVTCENQAPVHFVGVGSC"}},
  "data": [
    {"variants_of": "B1", "conditions": "Lithobates pipiens; pH 2; 25 °C; Thermal; DSC; MES 100 mM; reversible: yes; structure 1ONC; whole UniProt chain shown", "units": {"ddG of mutation (higher = less stable)": "kcal/mol", "unfolding free energy": "kcal/mol"}, "values": [
      {"variant": "M23L", "ddG of mutation (higher = less stable)": 2.51, "unfolding free energy": 6.33}
    ]},
    {"variants_of": "B1", "conditions": "Lithobates pipiens; pH 2; Thermal; DSC; MES 100 mM; reversible: yes; structure 1ONC; whole UniProt chain shown", "units": {"Tm": "°C", "change of melting temperature, mutant - wild type (higher = more stable)": "°C", "heat capacity change of unfolding": "kcal/mol/K", "unfolding enthalpy (calorimetric)": "kcal/mol", "unfolding enthalpy (van 't Hoff)": "kcal/mol"}, "values": [
      {"variant": "M23L", "Tm": 62.2, "change of melting temperature, mutant - wild type (higher = more stable)": -7.3, "heat capacity change of unfolding": 1.24, "unfolding enthalpy (calorimetric)": 84.8, "unfolding enthalpy (van 't Hoff)": 88.4}
    ]},
    {"variants_of": "B1", "conditions": "Lithobates pipiens; pH 2.5; 25 °C; Thermal; DSC; MES 100 mM; reversible: yes; structure 1ONC; whole UniProt chain shown", "units": {"ddG of mutation (higher = less stable)": "kcal/mol", "unfolding free energy": "kcal/mol"}, "values": [
      {"variant": "M23L", "ddG of mutation (higher = less stable)": 2.29, "unfolding free energy": 7.24}
    ]},
    {"variants_of": "B1", "conditions": "Lithobates pipiens; pH 2.5; Thermal; DSC; MES 100 mM; reversible: yes; structure 1ONC; whole UniProt chain shown", "units": {"Tm": "°C", "change of melting temperature, mutant - wild type (higher = more stable)": "°C", "heat capacity change of unfolding": "kcal/mol/K", "unfolding enthalpy (calorimetric)": "kcal/mol", "unfolding enthalpy (van 't Hoff)": "kcal/mol"}, "values": [
      {"variant": "M23L", "Tm": 65.8, "change of melting temperature, mutant - wild type (higher = more stable)": -6.8, "heat capacity change of unfolding": 1.51, "unfolding enthalpy (calorimetric)": 90.8, "unfolding enthalpy (van 't Hoff)": 87.3}
    ]},
    {"variants_of": "B1", "conditions": "Lithobates pipiens; pH 3; 25 °C; Thermal; DSC; MES 100 mM; reversible: yes; structure 1ONC; whole UniProt chain shown", "units": {"ddG of mutation (higher = less stable)": "kcal/mol", "unfolding free energy": "kcal/mol"}, "values": [
      {"variant": "M23L", "ddG of mutation (higher = less stable)": 2.77, "unfolding free energy": 8.03}
    ]},
    {"variants_of": "B1", "conditions": "Lithobates pipiens; pH 3; Thermal; DSC; MES 100 mM; reversible: yes; structure 1ONC; whole UniProt chain shown", "units": {"Tm": "°C", "change of melting temperature, mutant - wild type (higher = more stable)": "°C", "heat capacity change of unfolding": "kcal/mol/K", "unfolding enthalpy (calorimetric)": "kcal/mol", "unfolding enthalpy (van 't Hoff)": "kcal/mol"}, "values": [
      {"variant": "M23L", "Tm": 68.9, "change of melting temperature, mutant - wild type (higher = more stable)": -7.6, "heat capacity change of unfolding": 1.39, "unfolding enthalpy (calorimetric)": 95.6, "unfolding enthalpy (van 't Hoff)": 94.7}
    ]},
    {"variants_of": "B1", "conditions": "Lithobates pipiens; pH 3.5; 25 °C; Thermal; DSC; MES 100 mM; reversible: yes; structure 1ONC; whole UniProt chain shown", "units": {"ddG of mutation (higher = less stable)": "kcal/mol", "unfolding free energy": "kcal/mol"}, "values": [
      {"variant": "M23L", "ddG of mutation (higher = less stable)": 2.89, "unfolding free energy": 9.32}
    ]},
    {"variants_of": "B1", "conditions": "Lithobates pipiens; pH 3.5; Thermal; DSC; MES 100 mM; reversible: yes; structure 1ONC; whole UniProt chain shown", "units": {"Tm": "°C", "change of melting temperature, mutant - wild type (higher = more stable)": "°C", "heat capacity change of unfolding": "kcal/mol/K", "unfolding enthalpy (calorimetric)": "kcal/mol", "unfolding enthalpy (van 't Hoff)": "kcal/mol"}, "values": [
      {"variant": "M23L", "Tm": 74.7, "change of melting temperature, mutant - wild type (higher = more stable)": -6.9, "heat capacity change of unfolding": 1.48, "unfolding enthalpy (calorimetric)": 103, "unfolding enthalpy (van 't Hoff)": 99.8}
    ]},
    {"variants_of": "B1", "conditions": "Lithobates pipiens; pH 4; Thermal; DSC; MES 100 mM; reversible: yes; structure 1ONC; whole UniProt chain shown", "units": {"Tm": "°C", "change of melting temperature, mutant - wild type (higher = more stable)": "°C", "heat capacity change of unfolding": "kcal/mol/K", "unfolding enthalpy (calorimetric)": "kcal/mol", "unfolding enthalpy (van 't Hoff)": "kcal/mol"}, "values": [
      {"variant": "M23L", "Tm": 80.7, "change of melting temperature, mutant - wild type (higher = more stable)": -6.1, "heat capacity change of unfolding": 1.34, "unfolding enthalpy (calorimetric)": 112, "unfolding enthalpy (van 't Hoff)": 115}
    ]},
    {"variants_of": "B1", "conditions": "Lithobates pipiens; pH 5; 25 °C; Thermal; DSC; MES 100 mM; reversible: yes; structure 1ONC; whole UniProt chain shown", "units": {"ddG of mutation (higher = less stable)": "kcal/mol", "unfolding free energy": "kcal/mol"}, "values": [
      {"variant": "M23L", "ddG of mutation (higher = less stable)": 2.65, "unfolding free energy": 11.5}
    ]},
    {"variants_of": "B1", "conditions": "Lithobates pipiens; pH 5; Thermal; DSC; MES 100 mM; reversible: yes; structure 1ONC; whole UniProt chain shown", "units": {"Tm": "°C", "change of melting temperature, mutant - wild type (higher = more stable)": "°C", "heat capacity change of unfolding": "kcal/mol/K", "unfolding enthalpy (calorimetric)": "kcal/mol", "unfolding enthalpy (van 't Hoff)": "kcal/mol"}, "values": [
      {"variant": "M23L", "Tm": 82.3, "change of melting temperature, mutant - wild type (higher = more stable)": -6, "heat capacity change of unfolding": 1.43, "unfolding enthalpy (calorimetric)": 115, "unfolding enthalpy (van 't Hoff)": 117}
    ]},
    {"variants_of": "B1", "conditions": "Lithobates pipiens; pH 6; 25 °C; GdnHCl; CD; MES 100 mM; reversible: yes; structure 1ONC; whole UniProt chain shown", "units": {"ddG of mutation (higher = less stable)": "kcal/mol", "denaturant m value": "kcal/mol/M", "denaturant midpoint (higher = more stable)": "M", "unfolding free energy": "kcal/mol"}, "values": [
      {"variant": "M23L", "ddG of mutation (higher = less stable)": 3.06, "denaturant m value": 3.25, "denaturant midpoint (higher = more stable)": 3.4, "unfolding free energy": 11}
    ]},
    {"variants_of": "B1", "conditions": "Lithobates pipiens; pH 6; 25 °C; GdnHCl; Fluorescence; MES 100 mM; reversible: yes; structure 1ONC; whole UniProt chain shown", "units": {"ddG of mutation (higher = less stable)": "kcal/mol", "denaturant m value": "kcal/mol/M", "denaturant midpoint (higher = more stable)": "M", "unfolding free energy": "kcal/mol"}, "values": [
      {"variant": "M23L", "ddG of mutation (higher = less stable)": 2.63, "denaturant m value": 3.3, "denaturant midpoint (higher = more stable)": 3.4, "unfolding free energy": 11.2}
    ]},
    {"variants_of": "B1", "conditions": "Lithobates pipiens; pH 6; 25 °C; Thermal; DSC; MES 100 mM; reversible: yes; structure 1ONC; whole UniProt chain shown", "units": {"ddG of mutation (higher = less stable)": "kcal/mol", "unfolding free energy": "kcal/mol"}, "values": [
      {"variant": "M23L", "ddG of mutation (higher = less stable)": 2.65, "unfolding free energy": 11.5}
    ]},
    {"variants_of": "B1", "conditions": "Lithobates pipiens; pH 6; Thermal; DSC; MES 100 mM; reversible: yes; structure 1ONC; whole UniProt chain shown", "units": {"Tm": "°C", "change of melting temperature, mutant - wild type (higher = more stable)": "°C", "heat capacity change of unfolding": "kcal/mol/K", "unfolding enthalpy (calorimetric)": "kcal/mol", "unfolding enthalpy (van 't Hoff)": "kcal/mol"}, "values": [
      {"variant": "M23L", "Tm": 82.8, "change of melting temperature, mutant - wild type (higher = more stable)": -5.9, "heat capacity change of unfolding": 1.29, "unfolding enthalpy (calorimetric)": 115, "unfolding enthalpy (van 't Hoff)": 112}
    ]},
    {"variants_of": "B1", "conditions": "Lithobates pipiens; pH 7; 25 °C; Thermal; DSC; MES 100 mM; reversible: yes; structure 1ONC; whole UniProt chain shown", "units": {"ddG of mutation (higher = less stable)": "kcal/mol", "unfolding free energy": "kcal/mol"}, "values": [
      {"variant": "M23L", "ddG of mutation (higher = less stable)": 2.22, "unfolding free energy": 11.5}
    ]},
    {"variants_of": "B1", "conditions": "Lithobates pipiens; pH 7; Thermal; DSC; MES 100 mM; reversible: yes; structure 1ONC; whole UniProt chain shown", "units": {"Tm": "°C", "change of melting temperature, mutant - wild type (higher = more stable)": "°C", "heat capacity change of unfolding": "kcal/mol/K", "unfolding enthalpy (calorimetric)": "kcal/mol", "unfolding enthalpy (van 't Hoff)": "kcal/mol"}, "values": [
      {"variant": "M23L", "Tm": 82, "change of melting temperature, mutant - wild type (higher = more stable)": -5.8, "heat capacity change of unfolding": 1.46, "unfolding enthalpy (calorimetric)": 115, "unfolding enthalpy (van 't Hoff)": 118}
    ]},
    {"variants_of": "B1", "conditions": "Lithobates pipiens; pH 8; 25 °C; Thermal; DSC; MES 100 mM; reversible: yes; structure 1ONC; whole UniProt chain shown", "units": {"ddG of mutation (higher = less stable)": "kcal/mol", "unfolding free energy": "kcal/mol"}, "values": [
      {"variant": "M23L", "ddG of mutation (higher = less stable)": 2.39, "unfolding free energy": 10.6}
    ]},
    {"variants_of": "B1", "conditions": "Lithobates pipiens; pH 8; Thermal; DSC; MES 100 mM; reversible: yes; structure 1ONC; whole UniProt chain shown", "units": {"Tm": "°C", "change of melting temperature, mutant - wild type (higher = more stable)": "°C", "heat capacity change of unfolding": "kcal/mol/K", "unfolding enthalpy (calorimetric)": "kcal/mol", "unfolding enthalpy (van 't Hoff)": "kcal/mol"}, "values": [
      {"variant": "M23L", "Tm": 79.1, "change of melting temperature, mutant - wild type (higher = more stable)": -6.3, "heat capacity change of unfolding": 1.36, "unfolding enthalpy (calorimetric)": 110, "unfolding enthalpy (van 't Hoff)": 109}
    ]}
  ]
}
